In paper PMC2724274 (Nucleic Acids Research, 2009):

Target: the molecule itself
Experiment: crystal structure

B1: CrgA (contact-regulated gene A), full-length, from Neisseria meningitidis (natural protein, UniProt Q9JXW7 1-299, looked up)
chain: MKTNSEELTVFVQVVESGSFSRAAEQLAMANSAVSRIVKRLEEKLGVNLLNRTTRQLSLTEEGAQYFRRAQRILQEMAAAETEMLAVHEIPQGVLSVDSAMPMVLHLLAPLAAKFNERYPHIRLSLVSSEGYINLIERKVDIALRAGELDDSGLRARHLFDSRFRVIASPEYLAKHGTPQSTEELAGHQCLGFTEPGSLNTWAVLDAQGNPYKISPHFTASSGEILRSLCLSGCGIVCLSDFLVDNDIAEGKLIPLLAEQTSDKTHPFNAVYYSDKAVNLRLRVFLDFLVEELGNNLCG
With B1 as the protein, how does the “stoichiometry N” value read?
The value was 8.
